Source: the supplement of paper PMC12042874
± gives the uncertainty stated by the source.

Assay: amyloid nucleation score (Sup35N fusion, yeast selection) (log enrichment); library NNK1; higher = more nucleation; inactive = no reads after selection
Procedure, shortened: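 In psi-negative yeast, Sup35N fusions carrying peptides of 20 random codons were induced with 100 μM copper sulfate for 24 hours. The cells then grew 7 days at 30°C on medium lacking adenine and uracil, and plasmid inserts from input and output were Illumina-sequenced, excluding sequences with under 100 input reads. Nucleation score is the DiMSum log enrichment of output over input reads, centred on the mode score of non-aggregating sequences.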

CNCAGDLYAVRLYDGGCSSL and CNCVWRCWV are within error of each other in amyloid nucleation score: -0.006 ± 0.46 for the first, 1.14 ± 0.78 for the second.

Going from CNKWRYSFVCIPGISRQ to CNYTSPPLSVKDRASLCHTN, the amyloid nucleation score falls from 2.22 ± 0.091 to -0.301 ± 0.93.

CPLTGDRTAVRHMRKSAFAE and CPRVKAHVRKNVFFSLVMSL are within error of each other in amyloid nucleation score: -0.525 ± 0.4 for the first, 0.296 ± 0.44 for the second.

CPRYLATNIFHAGECVNHSR and CPVNDMGVWGKMACWNNRV are within error of each other in amyloid nucleation score: -1.08 ± 2.7 for the first, -0.691 ± 0.54 for the second.

CQEKRSFPVNMNRDIPCLSS and CQIFELLSNVRVTLLIYNSG are within error of each other in amyloid nucleation score: 0.193 ± 1.5 for the first, 1.41 ± 0.19 for the second.

First: CQLSNTSIACSLYNLHCRSW
Second: CQSGMSDDEGGQGRFVKCMG
The amyloid nucleation score of the first is higher: 4.42 ± 0.13 for the first, 0.114 ± 0.51 for the second.

CRATTP and CRCYNWFRWSLMS are within error of each other in amyloid nucleation score: 0.282 ± 0.49 for the first, -0.07 ± 0.26 for the second.

Compared with CRDVY, CRIQFSSVRMDDSCAQGRKD is lower in amyloid nucleation score: 1.92 ± 0.51 for the first, 0.504 ± 0.67 for the second.

Going from CRLHVNGLVIVCASWKCGA to CRPVGSTVVSVDNGTS, the amyloid nucleation score falls from 3.76 ± 0.1 to -0.188 ± 0.37.

First: CRQVFLFLVVPKYYNRMLST
Second: CRRNGGTLMAGE
The amyloid nucleation score of the first is lower: -0.251 ± 0.31 for the first, 1.21 ± 0.76 for the second.

CRRPEWCEWQGLQTEE and CRSGYRFLRRRAGLTVMR are within error of each other in amyloid nucleation score: 0.266 ± 0.83 for the first, -0.413 ± 1.5 for the second.

CRTCRNQRMKDKSELSWLMS and CRTTHQALRWIHMDYYYSWV are within error of each other in amyloid nucleation score: -0.589 ± 0.6 for the first, -0.327 ± 0.31 for the second.

CRVPIRCRGDLLSLRAVRFR and CSDSNIPLHNHSWGTSVVDN are within error of each other in amyloid nucleation score: 1.88 ± 0.14 for the first, 1.31 ± 0.63 for the second.

CSENT and CSFYHVFRCSVGFDVFFSTD are within error of each other in amyloid nucleation score: -0.875 ± 0.52 for the first, -0.259 ± 0.41 for the second.

CSGCQARIWALDRRRRVEVS and CSGLNVSLSRRQVVVLSV are within error of each other in amyloid nucleation score: 0.213 ± 0.69 for the first, -0.632 ± 0.33 for the second.

CSHANETW and CSKIVYPCSTFTSLFYLFLP are within error of each other in amyloid nucleation score: 0.593 ± 0.55 for the first, -0.614 ± 0.8 for the second.

Compared with CSLNLNCVS, CSLTKQRCYFEQLMSGPPCL is lower in amyloid nucleation score: 3.76 ± 0.13 for the first, -0.329 ± 0.35 for the second.

Going from CSNDMGEQWWEDRYCTGKWD to CSPVYIEFRLRQVFVARA, the amyloid nucleation score rises from -0.204 ± 0.38 to 1.26 ± 0.76.

CSVKCKTRCVYRFMESKWF and CTAQTSCILW are within error of each other in amyloid nucleation score: -0.021 ± 0.32 for the first, 0.2 ± 0.29 for the second.

CTFSSWRESGFWTSLIHGYL and CTLSYSCFLVVLSFYGQSSF are within error of each other in amyloid nucleation score: -0.218 ± 0.36 for the first, 0.366 ± 0.24 for the second.

Compared with CTRFKGFAWTSMLRL, CVCLSVARLDYADIFVWTFM is higher in amyloid nucleation score: 0.21 ± 0.75 for the first, 2.28 ± 0.13 for the second.

CVCYRTDRVARTGCNEPSMQ and CVDRQFAAVRQVTTIQTWCG are within error of each other in amyloid nucleation score: 0.177 ± 0.59 for the first, 0.983 ± 0.26 for the second.

CVFRCVLVKWSVNMVLLLWF and CVIDRWGDIYSNHEGNRSLL are within error of each other in amyloid nucleation score: 0.536 ± 0.3 for the first, -0.025 ± 0.32 for the second.

First: CVKERELIFFWYVVRSEYDL
Second: CVLCKQRFTILMQRWLVRK
The amyloid nucleation score of the first is lower: -0.485 ± 0.47 for the first, 0.961 ± 0.61 for the second.

CVNLFSLLFWTLAIRCLNFR and CVPDGKFRSKRIPGRNFPLL are within error of each other in amyloid nucleation score: -0.025 ± 0.49 for the first, 0.278 ± 0.42 for the second.

Going from CVTAAEM to CWCGVTVCV, the amyloid nucleation score falls from 0.762 ± 0.41 to -0.276 ± 0.59.

Going from CWCMFCTASL to CWGLRLLSFVRRLV, the amyloid nucleation score falls from 7.637 ± 0.064 to 0.749 ± 1.

CWVCNEKRAFRRPVSNQLRV and CYCNEKIVTMRAIDIVRFTC are within error of each other in amyloid nucleation score: -0.146 ± 0.85 for the first, -0.556 ± 0.23 for the second.

CYHSKFAVAYQSRICWPWRD and CYLLQWTSFCQQAFSNEMGW are within error of each other in amyloid nucleation score: 1.26 ± 0.67 for the first, 0.267 ± 0.67 for the second.

CYNNSCDKWGWASM and CYSRAYEEARSAI are within error of each other in amyloid nucleation score: 1.22 ± 0.53 for the first, 1.21 ± 0.76 for the second.

CYVKTYKIKSLRR and CYVMLINAEND are within error of each other in amyloid nucleation score: -0.07 ± 1.4 for the first, -0.796 ± 1.4 for the second.

Compared with CYVNLTFPVLVEACTASFTD, DAEFRHDSGYEVHHQKLVFF is lower in amyloid nucleation score: 6.722 ± 0.055 for the first, 2.91 ± 0.19 for the second.

DAMRGLPFYQYMHHMGNGYW and DANNIRLDDSFELRWCKNVC are within error of each other in amyloid nucleation score: -0.083 ± 1.4 for the first, -1.36 ± 0.91 for the second.

First: DASIIPYMNMFIMLTSLA
Second: DCGAWGHTLVSWSKYLGKSF
The amyloid nucleation score of the first is lower: -0.889 ± 1.7 for the first, 3.64 ± 0.092 for the second.

DCGDNRLTTEGQKSSSPVAD and DCVSHAGQRGIMCRSGSLRF are within error of each other in amyloid nucleation score: 0.378 ± 0.3 for the first, -0.138 ± 0.64 for the second.

DDGGLSFGSGNSQSSKKIWL and DDKSFQ are within error of each other in amyloid nucleation score: 0.853 ± 0.42 for the first, 0.614 ± 0.37 for the second.

Going from DDMVDVPFTMVGMWPYDSY to DDQKIRRY, the amyloid nucleation score rises from -0.381 ± 0.3 to 0.602 ± 0.34.

Going from DDSHVSCDYTLYGWSFGYMC to DDVMSKVPCVTTYSVVLLMR, the amyloid nucleation score falls from 2.37 ± 0.1 to 0.83 ± 0.78.

Compared with DEGRDLILISLAHRTSRIDP, DETWLSLQVNLLLFYSRMDM is lower in amyloid nucleation score: 1.29 ± 0.26 for the first, -0.153 ± 0.66 for the second.

DFAYMSVLWIVVMLRGFLVK and DFDNEGLWCS are within error of each other in amyloid nucleation score: 0.639 ± 0.45 for the first, -0.217 ± 0.42 for the second.

With CNELI the amyloid nucleation score was “inactive”.
With CRCFGRFLVITSI the amyloid nucleation score was “inactive”.
For CRSSVLRSVCINNLSKCSLV, the amyloid nucleation score was “inactive”.
With CSYPVECSGSMYVSEKTSIF the amyloid nucleation score was “inactive”.
For DCTEH, the amyloid nucleation score was “inactive”.
